Data published in patent publication US20200131473A1, “METHOD OF GENERATING 2 CELL-LIKE STEM CELLS” (IFOM FONDAZIONE ISTITUTO FIRC DI ONCOLOGIA MOLECOLARE, priority 2017, published 2020).

Experiments:
Format in all cases: cell-based, mouse
pZscan4-Emerald ESCs = assay: FACS analysis of Zscan4-Emerald ESCs (Emerald-GFP positive cells)
Protocol: (§1) All treatments including APH, HU, UV, ATRi, ATMi and Chk1i were added in to fresh ESC medium and the cells were kept in 37° C. and 3% 02 tension for overnight (16-17 hrs) unless mentioned in each particular result section. APH was used at various concentrations ranging from 0.3 uM to 6 uM that is mentioned in each experiment in order to induce mild to acute replication stress response. Similarly, HU was used at 0.1 mM-3 mM. ATMi (KU-55933) and ATRi (VE 822) were used at the concentration of 10 uM and 1 uM respectively. Moreover, Chk1i (UCN-01) at the concentration of 100 nM was used. UV radiation was performed at the dosage ranging from 2 to 10 J/m2. For induction of ETAA1-AAD expression, Dox was used at the concentration of 1 μg/mL for 48 hrs.
ESCs were fixed and permeabilized using Cytoperm/Cytofix kit (BD Biosciences), and subsequently stained for one hour at room temperature with Alexa Fluor® 647 anti-H2AX-Phosphorylated (Ser139) antibody (Biolegend) or P-CHK1-PE conjugated antibody (cell signaling 12268). Cells were washed and acquired on a FACS Calibur instrument or Attune NxT (Thermo Fisher Scientific). For Emerald-GFP acquisition, cells were trypsinized, collected and subsequently acquired without fixation. Cell cycle profiles were acquired after incubation with DAPI (4′,6-diamidino-2-phenylindole) overnight. […]

[1] = test system: ATR pathway (γH2AX, CHK1, CHK2 phosphorylation); assay: FACS and immunoblot for ATR pathway activation upon ETAA1-AAD overexpression; settings: for number of γH2AX positive cells: versus empty vector (EV) infected ESCs
Source text: ESCs were fixed and permeabilized using Cytoperm/Cytofix kit (BD Biosciences), and subsequently stained for one hour at room temperature with Alexa Fluor® 647 anti-H2AX-Phosphorylated (Ser139) antibody (Biolegend) or P-CHK1-PE conjugated antibody (cell signaling 12268). Cells were washed and acquired on a FACS Calibur instrument or Attune NxT (Thermo Fisher Scientific). For Emerald-GFP acquisition, cells were trypsinized, collected and subsequently acquired without fixation. Cell cycle profiles were acquired after incubation with DAPI (4′,6-diamidino-2-phenylindole) overnight. For Caspase3 FACS analysis after fixation and permeabilization, Cleaved Caspase3 antibody were used for one hr at RT followed by washes and one hr incubation in donkey anti rabbit secondary antibody. […]
The cells were trypsinized and washed with PBS and then lysed in RIPA buffer plus protease/phosphatase inhibitor cocktail (cell signaling, #5872), incubating for 30 minutes on a rotating wheel at +4° C. Lysates were sonicated with a Bioruptor Sonication System (UCD200) at high power for 3 cycles of 30 seconds with one minute breaks. Lysates were centrifuged at 13000 rpm for 20-30 minutes and clear supernatants were transferred to new tubes. The proteins were quantified using Bio-Rad protein assay and following manufacturer's instructions. For the detection of each protein, 35 μg of total protein extracts were loaded. Standard western blot was performed using following antibodies: ATR antibody (Cell Signaling 2790), Phoshpho-Chk1 antibody-S345 (Cell signaling 2348), Phoshpho-Chk1 antibody S317 (cell signaling 12302), Zscan4 antibody (Abcam ab4340), total Chk1 antibody (Santa Cruz 8408) and Chk2 antibody (Millipore 05-649), Anti-P53 (Cell Signalling, 2524S) and Anti-p-P53 (S15) (Cell Signalling, 12571S), Anti-Goat ALexa488 (Thermo Fisher Scientific, A-11055), Anti-Rabbit Cy3 (Jackson ImmunoResearch, 711-165-152), Anti-Mouse Alexa647 (Thermo Fisher Scientific, A-31571). […]

[2] = test system: 2C-like genes (Zscan4, MuERV-L/MERVL, Dux) in ESCs (E14, R1); assay: qPCR for 2C-like specific genes in ESCs; settings: Dox-inducible expression of ETAA1-AAD
Protocol: as §1
RNA was extracted using RNeasy mini kit (QIAGEN), quantified by NanoDrop spectrophotometer and cDNA was prepared from 2 μg total DNA-depleted RNA using SuperScript™ III reverse transcriptase kit (Invitrogen cat #18080-093) following manufacturer's instructions. qPCR assay performed based on standard protocol using 10× SsoFast™ EvaGreen® Supermix or later 1× LightCycler 480 SYBR Green I Master (Roche, 04707516001), 0.5 μM primer mix and 5 ng of cDNA. GAPDH was used as internal control to normalise the qPCR data following ΔΔCt method, 10 μM primer mix and a total amount of cDNA corresponding to 5 ng of starting RNA for each reaction.

B1: ETAA1-AAD: ATR activating domain of Ewing's tumor-associated antigen 1, overexpressed in ESCs by lentivirus (SEQ ID NO: 2) (protein)
chain: VRQREQPPTAALCSKSNPEERYETPKRALKMETDSLSSSFSSPNDPDGQNDIFWDQNSPLTKQLGKGRKKQIYTTDSDEISHIVNRIAPQDEKPTTNSMETLDMETWIGETAIPCTPSVAKGKSRAKISCTKLKTQSQEEELMETKLAKQFDKNMETEELDVIQEQNKRNYDFTQ
- Z+ population in ESCs culture (pZscan4-Emerald ESCs; Dox-inducible expression of ETAA1-AAD): significant increase
- increase in the number of Zscan4-positive population in ESC culture (pZscan4-Emerald ESCs; ETAA1-AAD lentivirus infected Zscan4-Emerald ESCs vs empty vector): up to 3 fold
- phosphorylation of H2AX, CHK1 and CHK2 in ESCs ([1]; ATR activation through ETAA1 expression): leads to the phosphorylation of H2AX and CHK1 but not CHK2
- number of γH2AX positive cells [1]: increase in the number of γH2AX cells
- number of γH2AX positive cells ([1]; listed as ETAA1-AAD lentivirus): increase in the number of γH2AX positive cell
- transcription of Zscan4, Dux and MERVL [2]: transcriptional activation of Zscan4, Dux and MERVL
